Test [1] has as its target untagged SARS-CoV-2 RBD expressed in E. coli BL21(DE3) and oxidatively refolded (RBDWT) (SARS-CoV-2) (UniProt P0DTC2). Nature of the test: BLI, RBD expressed in E. coli.
For test [2], the target named is Mammalian SARS-CoV2 RBD (residues 331-524) with C-terminal 6XHis Tag (SARS-CoV-2) (UniProt P0DTC2). Nature of the test: ELISA on coated antigen, anti-human IgG-HRP.
The target of test [3] is untagged SARS-CoV-2 RBD expressed in E. coli BL21(DE3) and oxidatively refolded (RBDWT) (SARS-CoV-2) (UniProt P0DTC2). Nature of the test: BLI, RBD expressed in E. coli, 1:1 Langmuir fit.

On to mAb 2B04 (antibody), for which the half-life in test [1] stood at 23.7 min. Moreover, the minimum positive concentration in test [2] was less than 5 µg/mL. For the same substance, the Kd in test [3] came out at 1.05 nM.

The values are drawn from WO2021212049A2.
